Measured values: article PMC9482650, “Quantitative fragmentomics allow affinity mapping of interactomes” (Nature Communications, 2022)
Blank lines part the entries; values can stand above or below the binder they belong to.

How the values were obtained:
Test in all cases: holdup assay
Parameters in all cases: key: below the threshold = too weak to quantify, mostly under pKd 3.1 to 4
ARHGEF12, Q9NZN5-2 = target: ARHGEF12, Q9NZN5-2
CARD11, Q9BXL7 = target: T1, CARD11, Q9BXL7
T1 sequence (Q9BXL7 662-765, limits assumed, looked up): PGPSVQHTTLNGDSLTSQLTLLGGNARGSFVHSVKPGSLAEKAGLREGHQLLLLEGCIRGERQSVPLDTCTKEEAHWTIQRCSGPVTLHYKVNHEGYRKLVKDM

DLG3_2, Q92796 = target: T2, DLG3_2, Q92796
T2 sequence (Q92796 221-321, limits assumed, looked up): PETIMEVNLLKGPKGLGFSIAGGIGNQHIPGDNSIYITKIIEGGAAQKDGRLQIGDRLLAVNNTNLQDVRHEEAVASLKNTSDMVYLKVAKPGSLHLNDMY

DLG3_3, Q92796 = target: T3, DLG3_3, Q92796
T3 sequence (Q92796 374-475, limits assumed, looked up): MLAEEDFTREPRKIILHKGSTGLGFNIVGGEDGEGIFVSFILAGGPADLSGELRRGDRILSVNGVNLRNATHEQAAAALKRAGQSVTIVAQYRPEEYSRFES

FRMPD2_2, Q68DX3 = target: FRMPD2_2, Q68DX3
Chain of FRMPD2_2, Q68DX3 (Q68DX3 944-1038): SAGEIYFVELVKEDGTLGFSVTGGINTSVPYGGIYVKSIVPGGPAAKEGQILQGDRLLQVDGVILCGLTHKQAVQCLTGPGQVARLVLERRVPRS

GIPC2, Q8TF65 = details: plain residues with an end cap or a label only (N-terminal biotin on a linker: ado-ado)
Chain of GIPC2, Q8TF65 (Q8TF65 112-203): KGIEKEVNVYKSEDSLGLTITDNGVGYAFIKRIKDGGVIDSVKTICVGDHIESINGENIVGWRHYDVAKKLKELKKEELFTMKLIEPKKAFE

GRIP1_2, Q9Y3R0 = target: T4, GRIP1_2, Q9Y3R0
T4 sequence (Q9Y3R0 145-248, limits assumed, looked up): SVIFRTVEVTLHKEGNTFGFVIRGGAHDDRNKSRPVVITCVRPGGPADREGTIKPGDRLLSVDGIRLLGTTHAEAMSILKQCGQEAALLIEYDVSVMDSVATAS

GRIP2_4, Q9C0E4 = target: GRIP2_4, Q9C0E4
Chain of GRIP2_4, Q9C0E4 (Q9C0E4 446-548): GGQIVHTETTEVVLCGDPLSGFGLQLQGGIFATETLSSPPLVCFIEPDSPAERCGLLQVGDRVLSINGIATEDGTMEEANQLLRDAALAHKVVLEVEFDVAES

GRIP2_5, Q9C0E4 = target: GRIP2_5, Q9C0E4
Chain of GRIP2_5, Q9C0E4 (Q9C0E4 544-642): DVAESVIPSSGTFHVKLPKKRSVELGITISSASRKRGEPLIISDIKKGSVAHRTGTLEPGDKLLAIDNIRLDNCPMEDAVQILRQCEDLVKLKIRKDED

GRIP2_7, Q9C0E4 = target: GRIP2_7, Q9C0E4
Chain of GRIP2_7, Q9C0E4 (Q9C0E4 934-1023): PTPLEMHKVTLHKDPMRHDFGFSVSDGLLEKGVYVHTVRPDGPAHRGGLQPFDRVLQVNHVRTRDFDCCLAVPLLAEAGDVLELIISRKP

IL16_4, Q14005 = target: IL16_4, Q14005
Chain of IL16_4, Q14005 (Q14005 1229-1329): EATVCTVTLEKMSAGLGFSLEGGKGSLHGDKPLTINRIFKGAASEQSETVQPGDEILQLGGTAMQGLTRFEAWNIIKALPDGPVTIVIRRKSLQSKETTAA

Inadl_4, Q8NI35 = target: Inadl_4, Q8NI35
Chain of Inadl_4, Q8NI35 (Q8NI35 547-651): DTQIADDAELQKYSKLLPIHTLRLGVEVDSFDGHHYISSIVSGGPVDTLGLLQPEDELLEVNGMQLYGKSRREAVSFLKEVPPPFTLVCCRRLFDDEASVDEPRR

LNX2_3, Q8N448 = target: T5, LNX2_3, Q8N448
T5 sequence (Q8N448 463-564, limits assumed, looked up): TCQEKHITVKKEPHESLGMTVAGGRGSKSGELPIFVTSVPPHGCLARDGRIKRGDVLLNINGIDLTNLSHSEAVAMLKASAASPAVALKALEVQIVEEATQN

MPP2, Q14168 = target: T6, MPP2, Q14168
T6 sequence (Q14168 180-250, limits assumed, looked up): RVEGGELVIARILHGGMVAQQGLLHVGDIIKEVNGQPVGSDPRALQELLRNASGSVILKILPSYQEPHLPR

MPP6, Q9NZW5 = target: T7, MPP6, Q9NZW5
T7 sequence (Q9NZW5 125-219, limits assumed, looked up): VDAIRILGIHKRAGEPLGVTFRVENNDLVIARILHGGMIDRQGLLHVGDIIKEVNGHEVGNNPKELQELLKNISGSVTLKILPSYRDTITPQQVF

MPP7, Q5T2T1 = target: T8, MPP7, Q5T2T1
T8 sequence (Q5T2T1 134-230, limits assumed, looked up): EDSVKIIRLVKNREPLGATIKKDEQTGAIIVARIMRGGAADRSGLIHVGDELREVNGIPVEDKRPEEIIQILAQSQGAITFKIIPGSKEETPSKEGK

NHERF4_1, Q86UT5-2 = target: NHERF4_1, Q86UT5-2
Chain of NHERF4_1, Q86UT5-2 (Q86UT5 other isoform, or with tags, fused parts or gaps): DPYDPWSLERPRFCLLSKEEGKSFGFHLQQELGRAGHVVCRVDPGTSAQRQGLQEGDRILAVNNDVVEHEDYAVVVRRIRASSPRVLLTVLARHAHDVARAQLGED

NOS1, P29475 = target: NOS1, P29475
Chain of NOS1, P29475 (P29475 9-101): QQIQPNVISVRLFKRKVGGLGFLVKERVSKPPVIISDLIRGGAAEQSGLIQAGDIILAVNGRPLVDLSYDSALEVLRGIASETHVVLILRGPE

PDLIM1, O00151 = target: PDLIM1, O00151
Chain of PDLIM1, O00151 (O00151 1-87): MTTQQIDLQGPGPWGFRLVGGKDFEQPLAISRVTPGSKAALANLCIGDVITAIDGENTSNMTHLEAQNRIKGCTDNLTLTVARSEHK

PTPN3, P26045 = target: PTPN3, P26045
Chain of PTPN3, P26045 (P26045 505-587): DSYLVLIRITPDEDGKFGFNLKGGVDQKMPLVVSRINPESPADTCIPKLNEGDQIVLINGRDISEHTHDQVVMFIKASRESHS

RHPN1, Q8TCX5 = target: T9, RHPN1, Q8TCX5
T9 sequence (Q8TCX5 508-602, limits assumed, looked up): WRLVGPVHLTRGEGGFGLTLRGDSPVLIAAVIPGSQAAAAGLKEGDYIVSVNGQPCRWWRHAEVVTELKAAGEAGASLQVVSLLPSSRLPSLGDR

SCRIB_1, Q14160 = target: SCRIB_1, Q14160
Chain of SCRIB_1, Q14160 (Q14160 718-814): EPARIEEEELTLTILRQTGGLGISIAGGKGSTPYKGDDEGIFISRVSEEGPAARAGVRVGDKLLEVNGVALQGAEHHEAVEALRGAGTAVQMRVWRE

SCRIB_3, Q14160 = target: SCRIB_3, Q14160
Chain of SCRIB_3, Q14160 (Q14160 999-1103): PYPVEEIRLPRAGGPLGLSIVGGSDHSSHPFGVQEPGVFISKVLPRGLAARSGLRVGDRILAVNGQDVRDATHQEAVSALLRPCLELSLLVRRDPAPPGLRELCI

SIPA1L2, Q9P2F8 = target: T10, SIPA1L2, Q9P2F8
T10 sequence (Q9P2F8 945-1036, limits assumed, looked up): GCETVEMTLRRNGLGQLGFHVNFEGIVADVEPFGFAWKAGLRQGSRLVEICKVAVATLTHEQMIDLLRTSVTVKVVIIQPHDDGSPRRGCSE

SNTG2, Q9NY99 = target: T11, SNTG2, Q9NY99
T11 sequence (Q9NY99 68-166, limits assumed, looked up): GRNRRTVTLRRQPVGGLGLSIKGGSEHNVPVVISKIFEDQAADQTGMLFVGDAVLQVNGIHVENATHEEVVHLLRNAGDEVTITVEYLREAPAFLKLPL

TJP2_1, Q9UDY2 = target: TJP2_1, Q9UDY2
Chain of TJP2_1, Q9UDY2 (Q9UDY2 24-128): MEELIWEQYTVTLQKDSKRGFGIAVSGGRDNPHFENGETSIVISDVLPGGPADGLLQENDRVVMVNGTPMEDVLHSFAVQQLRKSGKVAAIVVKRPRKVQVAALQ

[1] = plain residues with an end cap or a label only (N-terminal biotin on a linker: ado-ado)
[2] = modified: acetyl on K at position -1 from the C-terminal residue

Chain of ARHGEF12, Q9NZN5-2 (Q9NZN5 other isoform, or with tags, fused parts or gaps): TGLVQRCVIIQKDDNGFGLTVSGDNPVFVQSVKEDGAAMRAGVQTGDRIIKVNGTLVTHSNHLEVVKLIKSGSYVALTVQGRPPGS

pKd (ARHGEF12, Q9NZN5-2; [1]): 4.79 | pKd (CARD11, Q9BXL7; [1]): below the threshold | pKd (DLG3_2, Q92796; [1]): 4.01 | pKd (DLG3_3, Q92796; [1]): 3.74 | pKd (FRMPD2_2, Q68DX3; [1]): 3.65 | pKd (GIPC2, Q8TF65): 3.49 | pKd (GRIP1_2, Q9Y3R0; [1]): 3.5 | pKd (GRIP2_4, Q9C0E4; [1]): below the threshold | pKd (GRIP2_5, Q9C0E4; [1]): below the threshold | pKd (GRIP2_7, Q9C0E4; [1]): 3.51 | pKd (IL16_4, Q14005; [1]): 3.95 | pKd (Inadl_4, Q8NI35; [1]): below the threshold | pKd (LNX2_3, Q8N448; [1]): below the threshold | pKd (MPP2, Q14168; [1]): below the threshold | pKd (MPP6, Q9NZW5; [1]): below the threshold | pKd (MPP7, Q5T2T1; [1]): below the threshold | pKd (NHERF4_1, Q86UT5-2; [1]): 4.23 | pKd (NOS1, P29475; [1]): 4.02 | pKd (PDLIM1, O00151; [1]): below the threshold | pKd (PTPN3, P26045; [1]): 4.91 | pKd (RHPN1, Q8TCX5; [1]): 4.13 | pKd (SCRIB_1, Q14160; [1]): 3.83 | pKd (SCRIB_3, Q14160; [1]): 4.54 | pKd (SIPA1L2, Q9P2F8; [1]): 3.51 | pKd (SNTG2, Q9NY99; [1]): below the threshold | pKd (TJP2_1, Q9UDY2; [1]): 3.72
Binder: SKSLERATQL [COMMD3, Q9UBI1]

pKd (ARHGEF12, Q9NZN5-2; [1]): 4.62 | pKd (CARD11, Q9BXL7; [1]): below the threshold | pKd (DLG3_2, Q92796; [1]): 4.07 | pKd (DLG3_3, Q92796; [1]): below the threshold | pKd (FRMPD2_2, Q68DX3; [1]): below the threshold | pKd (GRIP1_2, Q9Y3R0; [1]): below the threshold | pKd (GRIP2_4, Q9C0E4; [1]): below the threshold | pKd (GRIP2_5, Q9C0E4; [1]): below the threshold | pKd (GRIP2_7, Q9C0E4; [1]): below the threshold | pKd (IL16_4, Q14005; [1]): below the threshold | pKd (Inadl_4, Q8NI35; [1]): below the threshold | pKd (LNX2_3, Q8N448; [1]): below the threshold | pKd (MPP2, Q14168; [1]): below the threshold | pKd (MPP7, Q5T2T1; [1]): below the threshold | pKd (NOS1, P29475; [1]): below the threshold | pKd (PDLIM1, O00151; [1]): below the threshold | pKd (RHPN1, Q8TCX5; [1]): below the threshold | pKd (SCRIB_1, Q14160; [1]): below the threshold | pKd (SCRIB_3, Q14160; [1]): below the threshold | pKd (SIPA1L2, Q9P2F8; [1]): below the threshold | pKd (SNTG2, Q9NY99; [1]): below the threshold | pKd (TJP2_1, Q9UDY2; [1]): below the threshold
Binder: KSTTRSSSSC [NDE1, Q9NXR1;Q9NXR1-2]

pKd (ARHGEF12, Q9NZN5-2; [2]): 4.47 | pKd (CARD11, Q9BXL7; [2]): below the threshold | pKd (DLG3_2, Q92796; [2]): 4.56 | pKd (DLG3_3, Q92796; [2]): below the threshold | pKd (FRMPD2_2, Q68DX3; [2]): 4.58 | pKd (GRIP1_2, Q9Y3R0; [2]): below the threshold | pKd (GRIP2_4, Q9C0E4; [2]): below the threshold | pKd (GRIP2_5, Q9C0E4; [2]): below the threshold | pKd (GRIP2_7, Q9C0E4; [2]): below the threshold | pKd (IL16_4, Q14005; [2]): below the threshold | pKd (Inadl_4, Q8NI35; [2]): below the threshold | pKd (LNX2_3, Q8N448; [2]): below the threshold | pKd (MPP2, Q14168; [2]): below the threshold | pKd (MPP6, Q9NZW5; [2]): below the threshold | pKd (MPP7, Q5T2T1; [2]): below the threshold | pKd (NHERF4_1, Q86UT5-2; [2]): below the threshold | pKd (NOS1, P29475; [2]): 3.81 | pKd (PDLIM1, O00151; [2]): below the threshold | pKd (PTPN3, P26045; [2]): 4.2 | pKd (RHPN1, Q8TCX5; [2]): 4.65 | pKd (SCRIB_1, Q14160; [2]): 5.23 | pKd (SCRIB_3, Q14160; [2]): 3.74 | pKd (SIPA1L2, Q9P2F8; [2]): below the threshold | pKd (SNTG2, Q9NY99; [2]): 3.78 | pKd (TJP2_1, Q9UDY2; [2]): 3.96
Binder: DEDQHTQITKV [PTEN_Ac, P60484]
